Assays:
[1] = target: T1, mouse AKBP2 over-expressed in NIH3T3 L1 fat cells from adenovirus vector AKBP2/pAdTrack-CMV
T1 chain: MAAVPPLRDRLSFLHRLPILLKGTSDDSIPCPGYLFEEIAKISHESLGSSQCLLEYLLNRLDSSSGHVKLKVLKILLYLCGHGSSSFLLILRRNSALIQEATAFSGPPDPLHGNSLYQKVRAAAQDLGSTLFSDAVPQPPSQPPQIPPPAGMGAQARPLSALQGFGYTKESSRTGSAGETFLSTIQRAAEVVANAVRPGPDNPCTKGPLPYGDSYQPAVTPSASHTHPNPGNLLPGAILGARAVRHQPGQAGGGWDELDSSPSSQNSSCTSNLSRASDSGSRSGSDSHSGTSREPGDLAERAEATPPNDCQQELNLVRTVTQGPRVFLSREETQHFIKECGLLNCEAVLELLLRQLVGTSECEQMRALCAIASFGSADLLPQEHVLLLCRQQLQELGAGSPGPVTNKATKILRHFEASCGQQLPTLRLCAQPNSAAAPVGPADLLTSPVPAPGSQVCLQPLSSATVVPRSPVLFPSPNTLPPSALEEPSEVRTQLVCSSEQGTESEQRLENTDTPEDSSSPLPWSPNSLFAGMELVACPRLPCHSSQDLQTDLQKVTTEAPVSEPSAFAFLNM

[2] = target: T2, mouse AKBP2 (Akt2 Binding Protein 2) fused to the GAL4 transcriptional activation domain (pACT2 library clone … (mouse, UniProt Q3U3N6 1-573)); experiment: yeast two hybrid, HIS3 (3AT resistance) and lacZ (β-galactosidase) reporters
T2 construct: Prey of the yeast two hybrid screen; also called mouse AKBP2 protein; not shown: limits and junction r
T2 sequence: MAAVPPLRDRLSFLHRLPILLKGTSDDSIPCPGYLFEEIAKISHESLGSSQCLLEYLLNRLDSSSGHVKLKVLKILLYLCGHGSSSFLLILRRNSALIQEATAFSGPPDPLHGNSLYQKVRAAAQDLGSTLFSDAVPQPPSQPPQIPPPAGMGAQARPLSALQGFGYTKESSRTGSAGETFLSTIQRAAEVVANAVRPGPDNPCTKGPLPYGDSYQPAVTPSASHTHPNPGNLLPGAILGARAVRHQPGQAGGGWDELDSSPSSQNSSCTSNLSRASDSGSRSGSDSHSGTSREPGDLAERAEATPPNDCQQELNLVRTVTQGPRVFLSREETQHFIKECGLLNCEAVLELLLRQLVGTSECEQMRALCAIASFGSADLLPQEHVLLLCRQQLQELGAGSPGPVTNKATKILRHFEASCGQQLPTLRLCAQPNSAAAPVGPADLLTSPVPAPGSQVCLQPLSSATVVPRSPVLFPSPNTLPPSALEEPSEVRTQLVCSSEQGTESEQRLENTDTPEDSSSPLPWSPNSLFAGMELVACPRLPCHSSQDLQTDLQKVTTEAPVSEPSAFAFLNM
Protocol: The aforementioned yeast strain MaV203 for two hybrid transformed by pDB-Akt2 was suspended in 400 ml of YPD liquid medium (DIFCO), cultured at 30° C. for about 6 hours until absorbance at a wave length of 590 nanometer became from 0.1 to 0.4, and then made into competent cells by the lithium acetate method, and the final amount was suspended in 1.0 ml of 0.1 M lithium-tris buffer. The cells were transformed with 20 μg of the mouse fat tissue derived cDNA library prepared in the aforementioned (3), and the cells were selected by culturing on a solid synthetic minimal medium (DISCO, 20% agarose) from which tryptophan and leucine as respective selection markers of pDB-Akt2 and the library had been deleted, thereby obtaining a transformant into which both plasmids were introduced. At the same time, in order to select a cell having an activated reporter gene HIS3 which is expressed when a fusion protein of the GAL4 DNA binding domain artificially expressed in the two hybrid system is linked to a fusion protein of the GAL4 transcriptional activation domain, the transformed cells were cultured at 30° C. for 5 days on the solid minimal medium (20% agarose) from which histidine was removed together with tryptophan and leucine and to which 20 mM of 3AT (3-amino-1,2,4-triazole; Sigma) as an inhibitor of the enzyme encoded by HIS3 was added. […]

[3] = target: T3, GST protein (protein of GST moiety alone, from pGEX-3X) (UniProt P08515 1-218 = GST); experiment: GST pull down of 35S-labelled in vitro translated human AKBP2, SDS-PAGE and autoradiography
T3 construct: Control of the pull down
T3 sequence (P08515 whole entry): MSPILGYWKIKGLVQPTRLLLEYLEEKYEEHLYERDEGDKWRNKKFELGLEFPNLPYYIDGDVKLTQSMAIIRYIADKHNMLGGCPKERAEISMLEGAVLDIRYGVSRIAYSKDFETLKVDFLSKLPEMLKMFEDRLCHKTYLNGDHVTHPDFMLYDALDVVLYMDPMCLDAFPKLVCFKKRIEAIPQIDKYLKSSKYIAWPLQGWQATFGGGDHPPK
Protocol: Using the GST fusion Akt2 protein (to be referred to as GST-Akt2 hereinafter) prepared in the aforementioned (2), the presence or absence of direct interaction between human AKBP2 protein and Akt2 protein was verified by the GST-pull down method (H. Matsushime et al., Jikken Kogaku, Vol. 113, No. 6, p. 528, 1994). Firstly, using 0.5 μg of the pcDNA-human AKBP2 prepared in the aforementioned Example 5 as the template, and using 40 μl of a TNT kit (TNTR Quick Coupled Transcription/Translation System; Promega) and 1.3 MBq of a radioisotope (redivue Pro-mix L-[³⁵S]; Amersham), radioisotope-labeled human AKBP2 protein was prepared by in vitro transcription and translation in accordance with the attached protocols. A 15 μl portion of this human AKBP2 protein preparation solution was mixed with 1 μg of the GST protein or GST-Akt2 purified on glutathione beads in the aforementioned (2) and shaken at 4° C. for 1 hour after adding 0.3 ml of Buffer A (50 mM Tris-HCl (pH 7.5), 10% glycerol, 120 mM NaCl, 1 mM EDTA, 0.1 mM EGTA, 0.5 mM PMSF, 0.5% NP-40). […] After repeating this operation 4 times, proteins in the precipitate were separated by SDS polyacrylamide gel electrophoresis in accordance with a conventionally known method, and the human AKBP2 protein was detected by autoradiography. As a result, a band which is not detected when the GST protein is mixed was detected when GST-Akt2 was mixed.

B1: Akt2 of NIH3T3 L1 fat cells (endogenous, immunoprecipitated with anti-Akt2 antibody) (protein)
chain: MNEVSVIKEGWLHKRGEYIKTWRPRYFLLKSDGSFIGYKERPEAPDQTLPPLNNFSVAECQLMKTERPRPNTFVIRCLQWTTVIERTFHVDSPDEREEWMRAIQMVANSLKQRGPGEDAMDYKCGSPSDSSTSEMMEVAVNKARAKVTMNDFDYLKLLGKGTFGKVILVREKATGRYYAMKILRKEVIIAKDEVAHTVTESRVLQNTRHPFLTALKYAFQTHDRLCFVMEYANGGELFFHLSRERVFTEDRARFYGAEIVSALEYLHSRDVVYRDIKLENLMLDKDGHIKITDFGLCKEGISDGATMKTFCGTPEYLAPEVLEDNDYGRAVDWWGLGVVMYEMMCGRLPFYNQDHERLFELILMEEIRFPRTLGPEAKSLLAGLLKKDPKQRLGGGPSDAKEVMEHRFFLSINWQDVVQKKLLPPFKPQVTSEVDTRYFDDEFTAQSITITPPDRYDSLDPLELDQRTHFPQFSYSASIRE
phosphorylation of the 473rd serine of immunoprecipitated Akt2, western blotting with anti-phosphorylated serine473 antibody, 30 minutes of insulin stimulation [1]: degree of the phosphorylation acceleration was weakened in the cells infected with the AKBP2 virus than in the control virus-infected cells
phosphorylation of the 473rd serine of immunoprecipitated Akt2, western blotting with anti-phosphorylated serine473 antibody, no stimulation [1]: the phosphorylated state at the time of no stimulation was reduced in the cells infected with the AKBP2 virus in comparison with the control virus-infected cells

B2: human Akt2 fused to the GAL4 DNA binding region (expressed from pDB-Akt2 in yeast MaV203) (other, UniProt P31751 1-481, looked up)
chain: MNEVSVIKEGWLHKRGEYIKTWRPRYFLLKSDGSFIGYKERPEAPDQTLPPLNNFSVAECQLMKTERPRPNTFVIRCLQWTTVIERTFHVDSPDEREEWMRAIQMVANSLKQRAPGEDPMDYKCGSPSDSSTTEEMEVAVSKARAKVTMNDFDYLKLLGKGTFGKVILVREKATGRYYAMKILRKEVIIAKDEVAHTVTESRVLQNTRHPFLTALKYAFQTHDRLCFVMEYANGGELFFHLSRERVFTEERARFYGAEIVSALEYLHSRDVVYRDIKLENLMLDKDGHIKITDFGLCKEGISDGATMKTFCGTPEYLAPEVLEDNDYGRAVDWWGLGVVMYEMMCGRLPFYNQDHERLFELILMEEIRFPRTLSPEAKSLLAGLLKKDPKQRLGGGPSDAKEVMEHRFFLSINWQDVVQKKLLPPFKPQVTSEVDTRYFDDEFTAQSITITPPDRYDSLGLLELDQRTHFPQFSYSASIRE
notes: mature; Bait of the yeast two hybrid screen; also called Akt2 (PKBβ); not shown: limits and junction residues not pri
binding result [2]: binds

B3: human AKBP2-V5-His 6 fusion protein (in vitro transcribed and translated from pcDNA-human AKBP2, 35S-labelled) (other, not shown: small tags and cut ends)
chain: MAAAPPLRDRLSFLHRLPILLKGTSDDDVPCPGYLFEEIAKISHESPGSSQCLLEYLLSRLHSSSGHGKLKVLKILLYLCSHGSSFFLLILKRNSAFIQEAAAFAGPPDPLHGNSLYQKVRAAAQDLGSTLFSDTVLPLAPSQPLGTPPATGMGSQARPHSTLQGFGYSKEHGRTGSAGEAFLSTIQKAAEVVASAMRPGPESPSTRRLLPRGDTYQPAMMPSASHGPPTLGNLLPGAIPGPRAVRHQPGQAGGGWDELDSGPSSQNSSQNSDLSRVSDSGSHSGSDSHSGASREPGDLAERVEVVALSDCQQELSLVRTVTRGPRAFLSREEAQHFIKACGLLNCEAVLQLLTCHLRGTSECTQLRALCAIASLGSSDLLPQEHILLRTRPWLQELSMGSPGPVTNKATKILRHFEASCGQLSPARGTSAEPGPTAALPGPSDLLTDAVPLPGSQVFLQPLSSTPVSSRSPAPSSGMPSSPVPTPPPDASPIPAPGDPSEAEARLAESRRWRPERIPGGTDSPKRGPSSCAWSRDSLFAGMELVACPRLVGAGAAAGESCPDAPRAPQTSSQRTAAKEPPGSEPSAFAFLNA
modifications: radioisotope-labelled (redivue Pro-mix L-[35S])
notes: also called human AKBP2 protein
binding result [3]: no binding (tested: 1 µg of the GST protein)

— US20060211041A1 (Astellas, published 2006)
